Test results reported in the supplement of paper PMC9732359.
± gives the uncertainty stated by the source.

Assay: protein stability index of a GFP-peptide fusion (yeast GPS) (PSI 1-4); higher = more stable; sorted into four equal gates, so the index is relative within each strain
Outline: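 The protein stability index combines read frequencies across sorting gates, each weighted by its gate number and then summed. To obtain those frequencies, a pooled yeast library of GFP fusions to tiled 17-residue yeast protein peptides, on a plasmid also expressing Cherry, was grown to mid-log phase in leucine-free medium. The cells were sorted into four equal gates by GFP/Cherry ratio before plasmid amplification by PCR and Illumina sequencing.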

Row | Sequence | protein stability index (doa10∆) | protein stability index (pdr5∆) | protein stability index (san1∆) | protein stability index (ubr1∆)
1 | GKMIELISGKAGVLNGT [RET1] | 2.62 ± 0.079 | 2.98 ± 0.087 | 2.52 ± 0.24 | 2.6 ± 0.11
2 | GIDPTRIYTNSFIDIME [RPO21] | 2.64 ± 0.048 | 2.5 ± 0.045 | 2.77 ± 0.048 | 2.53 ± 0.034
3 | LRIELQSVYNDEKLKTE [SRB8] | 3.17 ± 0.22 | 3.23 ± 0.24 | 3.26 ± 0.12 | 
4 | SFTSATERHIQVGDGLE [PRE7] | 2.79 ± 0.098 | 2.56 ± 0.075 | 3.35 ± 0.091 | 2.85 ± 0.049
5 | RQFEVKQLQLAMHNSKA [POP1] | 1.95 ± 0.055 | 2.17 ± 0.059 | 1.77 ± 0.088 | 1.61 ± 0.038
6 | PLYARYINVNPQEETIT [ECM29] | 2.74 ± 0.07 | 2.85 ± 0.059 | 2.9 ± 0.067 | 2.69 ± 0.041
7 | QQQQQQNGQQPPTTSNL [YML103C/NUP188] | 2.502 ± 0.02 | 2.737 ± 0.022 | 2.617 ± 0.019 | 2.661 ± 0.02
8 | CTESTRENALYDYYALQ [SNF2] | 1.83 ± 0.078 | 2.25 ± 0.064 | 2.99 ± 0.048 | 2.91 ± 0.083
9 | VLAGDTRNITDYSINSR [PRE7] | 2.93 ± 0.09 | 3.29 ± 0.075 | 3.22 ± 0.061 | 3.24 ± 0.058
10 | QRTTTGARVFGALKGAS [RPL5] | 2.88 ± 0.2 | 2.52 ± 0.2 |  | 3.05 ± 0.16
11 | KATAAKKAVVKGTNGKK [RPL25] | 3.3 ± 0.15 | 2.05 ± 0.1 | 1.53 ± 0.17 | 1.29 ± 0.22
12 | LSHYAKIRPWRTFRLNE [RPO31] | 2.86 ± 0.058 | 2.4 ± 0.055 | 3.06 ± 0.073 | 2.5 ± 0.051
13 | RKNRYVILQSDLEEAYA [RPT3] | 2.41 ± 0.22 | 2.23 ± 0.15 | 2.1 ± 0.17 | 2.11 ± 0.11
14 | EMNLHVPQTEEARAEAI [RPO31] | 3.09 ± 0.1 | 3.08 ± 0.085 | 3.05 ± 0.08 | 3.12 ± 0.045
15 | KCSTRGLSTDHTTQIVN [YML103C/NUP188] | 2.9 ± 0.079 | 2.9 ± 0.085 | 2.79 ± 0.07 | 3.01 ± 0.054
16 | NLSVTSPYNADFDGDEM [RPO21] | 2.83 ± 0.063 | 3.14 ± 0.059 | 2.96 ± 0.061 | 3.04 ± 0.042
17 | ASRDKTLISWKLTGDDQ [ASC1] | 1.32 ± 0.14 | 1.68 ± 0.13 |  | 1.61 ± 0.094
18 | TFQRVCQYMVACVPLLP [RPN1] | 2.5 ± 0.06 | 2.42 ± 0.071 | 1.86 ± 0.14 | 2.53 ± 0.1
19 | DVVYALKRQGRTLYGFG [HHF1] | 2.77 ± 0.083 | 2.8 ± 0.11 | 2.34 ± 0.14 | 2.38 ± 0.083
20 | PDGTLIASAGKDGEIML [ASC1] | 3.06 ± 0.073 | 3.26 ± 0.091 | 3.29 ± 0.045 | 2.8 ± 0.045
21 | GGGYFSAAGMTAAIDSV [FAS1] | 3.11 ± 0.15 | 3.23 ± 0.11 | 3 ± 0.24 | 3.07 ± 0.15
22 | IPSKNTPDASKPSFSFG [YLR335W/NUP2] | 2.51 ± 0.15 | 3.14 ± 0.23 | 2.44 ± 0.2 | 2.78 ± 0.085
23 | ETENSESIASSNTYKEE [MCD1] |  | 2.55 ± 0.29 |  | 2.89 ± 0.074
24 | NSTDGAKITEIGSTSKR [YIL149C/MLP2] | 3.02 ± 0.12 | 2.91 ± 0.086 | 3.01 ± 0.074 | 3.18 ± 0.062
25 | GKELDSLDLNNLELGGL [PGD1] | 3.08 ± 0.12 | 3.25 ± 0.12 | 2.99 ± 0.085 | 3.24 ± 0.066
26 | IDMDKLNTVLIADLDTE [RRP43] | 2.66 ± 0.099 | 3.02 ± 0.07 | 2.83 ± 0.066 | 3.22 ± 0.057

Row | Sequence | protein stability index (doa10∆) | protein stability index (pdr5∆) | protein stability index (san1∆) | protein stability index (ubr1∆)
27 | KIAGIEGHLAEIRAKEY [SRB2] | 3.36 ± 0.12 | 3.41 ± 0.097 | 3.4 ± 0.071 | 3.31 ± 0.058
28 | AFGEFSLEGCVEMAWIM [FAS2] | 2.46 ± 0.1 | 2.63 ± 0.12 | 2.48 ± 0.079 | 2.37 ± 0.088
29 | PTITLDDVYRPAAESKI [SNF5] | 3.13 ± 0.068 | 3.11 ± 0.071 | 3.02 ± 0.09 | 2.98 ± 0.068
30 | TKKTITPMGGFVHYGEI [RPL3] | 3.2 ± 0.074 | 3.1 ± 0.072 | 3.08 ± 0.093 | 3.01 ± 0.046
31 | LSLVYEIGGSDLKESMV [ECM29] | 2.98 ± 0.11 | 3.32 ± 0.12 | 3.36 ± 0.051 | 3.28 ± 0.11
32 | NIKPVEQHHINNLKNSG [GAL11] | 2.69 ± 0.062 | 2.59 ± 0.049 | 2.36 ± 0.069 | 2.47 ± 0.041
33 | YHGISKNDNIKKSVNKL [POP6] | 2.7 ± 0.064 | 2.75 ± 0.049 | 2.77 ± 0.05 | 2.85 ± 0.046
34 | STKSNKAKNPLTHSTPK [RPL8B] | 2.33 ± 0.069 | 2.83 ± 0.059 | 2.94 ± 0.058 | 2.73 ± 0.071
35 | TLPQPRLNKLNSNGIAM [SMD1] | 2.3 ± 0.11 | 2.27 ± 0.069 | 1.72 ± 0.094 | 2.15 ± 0.053
36 | RLDNLQDIKKAKRVENF [DSN1] | 1.52 ± 0.059 | 1.42 ± 0.039 | 2.56 ± 0.074 | 2.56 ± 0.048
37 | FSDKVNALWILVDLVSH [ITC1] | 1.4 ± 0.079 | 1.23 ± 0.051 | 1.35 ± 0.094 | 1.27 ± 0.045
38 | IVPLTEGDIQVLKSYGA [RPT1] | 3.14 ± 0.09 | 3.14 ± 0.11 | 2.77 ± 0.062 | 2.99 ± 0.052
39 | VFSHAQTAVTCESCSTI [RPS27A] | 1.47 ± 0.091 | 1.2 ± 0.076 | 1.16 ± 0.13 | 1.51 ± 0.076
40 | KDKGVYVVTSDEHPKTL [SIR2] | 2.78 ± 0.076 | 3.24 ± 0.075 | 3.25 ± 0.055 | 2.98 ± 0.079
41 | EKSDALVGVYRQQQENS [SMC1] | 3.25 ± 0.13 | 3.37 ± 0.098 | 3.41 ± 0.12 | 2.85 ± 0.096
42 | TNKISPKDFSPNFTGID [SSN2] | 2.76 ± 0.13 | 1.84 ± 0.11 | 2.9 ± 0.12 | 2.91 ± 0.057
43 | DRVQQDSEDEDSMKDTT [YML031W/NDC1] | 3.25 ± 0.14 | 3.22 ± 0.16 | 3.26 ± 0.091 | 3.25 ± 0.07
44 | EYTINLHKRLHGVSFKK [RPL31A] | 2.24 ± 0.093 | 2.19 ± 0.088 | 2.14 ± 0.11 | 1.61 ± 0.061
45 | KSVLGDGKKHSVFYTIL [RPO31] | 2.19 ± 0.087 | 2.42 ± 0.085 | 3.02 ± 0.08 | 2.1 ± 0.087
46 | TIKVAGTPLLEVRGQVP [SNU114] | 2.67 ± 0.08 | 2.69 ± 0.067 | 2.94 ± 0.063 | 2.98 ± 0.069
47 | RELILAKKQNYKLTNDE [YCG1] | 3.37 ± 0.067 | 3.35 ± 0.053 | 3.23 ± 0.05 | 3.29 ± 0.041
48 | DSIDLAPNTLTNILISP [YML103C/NUP188] | 1.58 ± 0.11 | 1.87 ± 0.081 | 1.55 ± 0.15 | 1.56 ± 0.19
49 | DLDETTQTFNGSIFTHE [YML031W/NDC1] | 2.96 ± 0.05 | 2.85 ± 0.037 | 2.85 ± 0.038 | 2.92 ± 0.033
50 | ERAKNVNGLLQVLMDIN [GAL11] | 2.94 ± 0.086 | 3.15 ± 0.083 | 3.19 ± 0.12 | 2.83 ± 0.04
51 | QSDLEIITQYVFESLEI [ARP9] | 2.35 ± 0.067 | 3.12 ± 0.07 | 2.52 ± 0.082 | 3.01 ± 0.08
52 | KLNVVGWFHSHPGYDCW [RRI1] | 2.59 ± 0.095 | 2.38 ± 0.099 | 2.61 ± 0.13 | 2.38 ± 0.064
